According to patent US20240109972A1, “ANTIBODY AND TAXANE COMBINATION THERAPY” (Genmab A/S, priority 2020, published 2024):

Test: GEN1046 in combination with docetaxel in metastatic NSCLC subjects, adverse effects
Type: in vivo, human
Method: Docetaxel was administered at a dose of 55 mg/m^2 or 75 mg/m^2 depending on the number of prior Dose Limiting Toxicities observed. The maximum tested dose of docetaxel was be 75 mg/m^2.
Subjects with a histological or cytological diagnosis of non-squamous NSCLC must not have an EGFR-sensitizing mutation and/or ALK translocation/ROS1 rearrangement. EGFR sensitizing mutations are those mutations that are amenable to treatment with an approved TKI. Documentation of EGFR and ALK status should be available per local assessment.

GEN1046: PD-L1×4-1BB bispecific antibody: PD-L1-547-FEAL combined with CD137-009-HC7LC2-FEAR (SEQ ID NOs: 1, 5, 21, 19; 8, 12, 22, 20)
Tolerability of the combination (GEN1046 100 mg with Docetaxel 55 or 75 mg/m^2): manageable and well tolerated
Alopecia Grade 1, GEN1046-related (GEN1046 + 55 mg/m^2 Docetaxel): 1
Alopecia Grade 2, GEN1046-related (GEN1046 + 55 mg/m^2 Docetaxel): 0
Alopecia Grade 3, GEN1046-related (GEN1046 + 55 mg/m^2 Docetaxel): 0
Alopecia Grade 4, GEN1046-related (GEN1046 + 55 mg/m^2 Docetaxel): 0
Alopecia Grade 5, GEN1046-related (GEN1046 + 55 mg/m^2 Docetaxel): 0
Anemia Grade 1, GEN1046-related (GEN1046 + 55 mg/m^2 Docetaxel): 0
Anemia Grade 2, GEN1046-related (GEN1046 + 55 mg/m^2 Docetaxel): 0
Anemia Grade 3, GEN1046-related (GEN1046 + 55 mg/m^2 Docetaxel): 3
Anemia Grade 4, GEN1046-related (GEN1046 + 55 mg/m^2 Docetaxel): 0
Anemia Grade 5, GEN1046-related (GEN1046 + 55 mg/m^2 Docetaxel): 0
Blood alkaline phosphatase increase Grade 1, GEN1046-related (GEN1046 + 55 mg/m^2 Docetaxel): 0
Blood alkaline phosphatase increase Grade 2, GEN1046-related (GEN1046 + 55 mg/m^2 Docetaxel): 1
Blood alkaline phosphatase increase Grade 3, GEN1046-related (GEN1046 + 55 mg/m^2 Docetaxel): 0
Blood alkaline phosphatase increase Grade 4, GEN1046-related (GEN1046 + 55 mg/m^2 Docetaxel): 0
Blood alkaline phosphatase increase Grade 5, GEN1046-related (GEN1046 + 55 mg/m^2 Docetaxel): 0
Decreased appetite Grade 1, GEN1046-related (GEN1046 + 55 mg/m^2 Docetaxel): 0
Decreased appetite Grade 2, GEN1046-related (GEN1046 + 55 mg/m^2 Docetaxel): 1
Decreased appetite Grade 3, GEN1046-related (GEN1046 + 55 mg/m^2 Docetaxel): 0
Decreased appetite Grade 4, GEN1046-related (GEN1046 + 55 mg/m^2 Docetaxel): 0
Decreased appetite Grade 5, GEN1046-related (GEN1046 + 55 mg/m^2 Docetaxel): 0
Dyspnea Grade 1, GEN1046-related (GEN1046 + 55 mg/m^2 Docetaxel): 0
Dyspnea Grade 2, GEN1046-related (GEN1046 + 55 mg/m^2 Docetaxel): 1
Dyspnea Grade 3, GEN1046-related (GEN1046 + 55 mg/m^2 Docetaxel): 0
Dyspnea Grade 4, GEN1046-related (GEN1046 + 55 mg/m^2 Docetaxel): 0
Dyspnea Grade 5, GEN1046-related (GEN1046 + 55 mg/m^2 Docetaxel): 0
Fatigue Grade 1, GEN1046-related (GEN1046 + 55 mg/m^2 Docetaxel): 0
Fatigue Grade 2, GEN1046-related (GEN1046 + 55 mg/m^2 Docetaxel): 2
Fatigue Grade 3, GEN1046-related (GEN1046 + 55 mg/m^2 Docetaxel): 1
Fatigue Grade 4, GEN1046-related (GEN1046 + 55 mg/m^2 Docetaxel): 0
Fatigue Grade 5, GEN1046-related (GEN1046 + 55 mg/m^2 Docetaxel): 0
Hypokalemia Grade 1, GEN1046-related (GEN1046 + 55 mg/m^2 Docetaxel): 0
Hypokalemia Grade 2, GEN1046-related (GEN1046 + 55 mg/m^2 Docetaxel): 1
Hypokalemia Grade 3, GEN1046-related (GEN1046 + 55 mg/m^2 Docetaxel): 0
Hypokalemia Grade 4, GEN1046-related (GEN1046 + 55 mg/m^2 Docetaxel): 0
Hypokalemia Grade 5, GEN1046-related (GEN1046 + 55 mg/m^2 Docetaxel): 0
Hypomagnesaemia Grade 1, GEN1046-related (GEN1046 + 55 mg/m^2 Docetaxel): 1
Hypomagnesaemia Grade 2, GEN1046-related (GEN1046 + 55 mg/m^2 Docetaxel): 0
Hypomagnesaemia Grade 3, GEN1046-related (GEN1046 + 55 mg/m^2 Docetaxel): 0
Hypomagnesaemia Grade 4, GEN1046-related (GEN1046 + 55 mg/m^2 Docetaxel): 0
Hypomagnesaemia Grade 5, GEN1046-related (GEN1046 + 55 mg/m^2 Docetaxel): 0
Nausea Grade 1, GEN1046-related (GEN1046 + 55 mg/m^2 Docetaxel): 1
Nausea Grade 2, GEN1046-related (GEN1046 + 55 mg/m^2 Docetaxel): 0
Nausea Grade 3, GEN1046-related (GEN1046 + 55 mg/m^2 Docetaxel): 0
Nausea Grade 4, GEN1046-related (GEN1046 + 55 mg/m^2 Docetaxel): 0
Nausea Grade 5, GEN1046-related (GEN1046 + 55 mg/m^2 Docetaxel): 0
Neutrophil count decreased Grade 1, GEN1046-related (GEN1046 + 55 mg/m^2 Docetaxel): 0
Neutrophil count decreased Grade 2, GEN1046-related (GEN1046 + 55 mg/m^2 Docetaxel): 0
Neutrophil count decreased Grade 3, GEN1046-related (GEN1046 + 55 mg/m^2 Docetaxel): 1
Neutrophil count decreased Grade 4, GEN1046-related (GEN1046 + 55 mg/m^2 Docetaxel): 0
Neutrophil count decreased Grade 5, GEN1046-related (GEN1046 + 55 mg/m^2 Docetaxel): 0
Pyrexia Grade 1, GEN1046-related (GEN1046 + 55 mg/m^2 Docetaxel): 1
Pyrexia Grade 2, GEN1046-related (GEN1046 + 55 mg/m^2 Docetaxel): 0
Pyrexia Grade 3, GEN1046-related (GEN1046 + 55 mg/m^2 Docetaxel): 0
Pyrexia Grade 4, GEN1046-related (GEN1046 + 55 mg/m^2 Docetaxel): 0
Pyrexia Grade 5, GEN1046-related (GEN1046 + 55 mg/m^2 Docetaxel): 0
Sinus tachycardia Grade 1, GEN1046-related (GEN1046 + 55 mg/m^2 Docetaxel): 0
Sinus tachycardia Grade 2, GEN1046-related (GEN1046 + 55 mg/m^2 Docetaxel): 1
Sinus tachycardia Grade 3, GEN1046-related (GEN1046 + 55 mg/m^2 Docetaxel): 0
Sinus tachycardia Grade 4, GEN1046-related (GEN1046 + 55 mg/m^2 Docetaxel): 0
Sinus tachycardia Grade 5, GEN1046-related (GEN1046 + 55 mg/m^2 Docetaxel): 0
Total treated subjects with related TEAEs Grade 1, GEN1046-related (GEN1046 + 55 mg/m^2 Docetaxel): 4
Total treated subjects with related TEAEs Grade 2, GEN1046-related (GEN1046 + 55 mg/m^2 Docetaxel): 4
Total treated subjects with related TEAEs Grade 3, GEN1046-related (GEN1046 + 55 mg/m^2 Docetaxel): 3
Total treated subjects with related TEAEs Grade 4, GEN1046-related (GEN1046 + 55 mg/m^2 Docetaxel): 0
Total treated subjects with related TEAEs Grade 5, GEN1046-related (GEN1046 + 55 mg/m^2 Docetaxel): 0
Vaginal hemorrhage Grade 1, GEN1046-related (GEN1046 + 55 mg/m^2 Docetaxel): 1
Vaginal hemorrhage Grade 2, GEN1046-related (GEN1046 + 55 mg/m^2 Docetaxel): 0
Vaginal hemorrhage Grade 3, GEN1046-related (GEN1046 + 55 mg/m^2 Docetaxel): 0
Vaginal hemorrhage Grade 4, GEN1046-related (GEN1046 + 55 mg/m^2 Docetaxel): 0
Vaginal hemorrhage Grade 5, GEN1046-related (GEN1046 + 55 mg/m^2 Docetaxel): 0
Vomiting Grade 1, GEN1046-related (GEN1046 + 55 mg/m^2 Docetaxel): 0
Vomiting Grade 2, GEN1046-related (GEN1046 + 55 mg/m^2 Docetaxel): 1
Vomiting Grade 3, GEN1046-related (GEN1046 + 55 mg/m^2 Docetaxel): 0
Vomiting Grade 4, GEN1046-related (GEN1046 + 55 mg/m^2 Docetaxel): 0
Vomiting Grade 5, GEN1046-related (GEN1046 + 55 mg/m^2 Docetaxel): 0
Amylase increased Grade 1, GEN1046-related (GEN1046 + 75 mg/m^2 Docetaxel): 1
Amylase increased Grade 2, GEN1046-related (GEN1046 + 75 mg/m^2 Docetaxel): 0
Amylase increased Grade 3, GEN1046-related (GEN1046 + 75 mg/m^2 Docetaxel): 0
Amylase increased Grade 4, GEN1046-related (GEN1046 + 75 mg/m^2 Docetaxel): 0
Amylase increased Grade 5, GEN1046-related (GEN1046 + 75 mg/m^2 Docetaxel): 0
Anemia Grade 1, GEN1046-related (GEN1046 + 75 mg/m^2 Docetaxel): 0
Anemia Grade 2, GEN1046-related (GEN1046 + 75 mg/m^2 Docetaxel): 1
Anemia Grade 3, GEN1046-related (GEN1046 + 75 mg/m^2 Docetaxel): 0
Anemia Grade 4, GEN1046-related (GEN1046 + 75 mg/m^2 Docetaxel): 0
